Patent publication US20030158378A1 (Amgen, published 2003)

Biological target: T1, FLAG-tagged murine CHL2 polypeptide (mCHL2-FLAG) (murine, UniProt Q8VEA6 27-426)
T1 construct: also called murine CHL2-FLAG; FLAG-tagged mCHL2 protein
T1 sequence: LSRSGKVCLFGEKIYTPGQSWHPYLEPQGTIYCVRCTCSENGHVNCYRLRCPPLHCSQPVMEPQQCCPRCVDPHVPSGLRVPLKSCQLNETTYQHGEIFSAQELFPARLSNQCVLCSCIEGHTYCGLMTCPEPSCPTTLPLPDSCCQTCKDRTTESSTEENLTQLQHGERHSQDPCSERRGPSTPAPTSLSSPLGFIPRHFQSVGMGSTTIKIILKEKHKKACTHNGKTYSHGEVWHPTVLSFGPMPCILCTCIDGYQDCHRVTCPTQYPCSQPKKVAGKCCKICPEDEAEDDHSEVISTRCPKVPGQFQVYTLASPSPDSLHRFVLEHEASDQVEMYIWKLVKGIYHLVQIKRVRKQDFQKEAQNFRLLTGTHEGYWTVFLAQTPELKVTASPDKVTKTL
Test: co-immunoprecipitation: mCHL2-FLAG mixed with activin A, anti-mCHL2 antiserum, protein A agarose beads, western blot for activin
Source text: FIG. 12 illustrates the results of Western blot analysis using mCHL2-FLAG proteins. In panel A, mCHL2-FLAG was mixed with BMP5 or activin A, treated with an anti-mCHL2 antiserum, and precipitated with protein A agarose beads. In panel B, mCHL2-FLAG was mixed with BMP2, BMP4, BMP5, BMP6, GDF5 (BMP14), or activin A, treated with an anti-mCHL2 antiserum, and precipitated with protein A agarose beads.

B1: activin A (ligand, UniProt P08476 311-426, looked up)
chain: GLECDGKVNICCKKQFFVSFKDIGWNDWIIAPSGYHANYCEGECPSHIAGTSGSSLSFHSTVINHYRMRGHSPFANLKSCCVPTKLRPMSMLYYDDGQNIIKKDIQNMIVEECGCS
B1: no binding.
